In US20260137822A1:

B1: Anti-FOLR1x4 GGSx4 (monospecific tetravalent VHH-VHH-Fc) (antibody, part only; not given: hinge and wild-type Fc, not shown: a dimerising Fc or GST)
chain, part: QVQLVESGGGLVQPGGSLRLSCAASGFTVSNSVMAWYRQTPGNEREFVAIINSIGITNYADSVKGRFTISRDNSKNTLYLQMNSLRAEDTAVYVCNRNFDRIYWGQGTLVTVSSGGSGGSGGSGGSQVQLVESGGGLVQPGGSLRLSCAASGFTVSNSVMAWYRQTPGNEREFVAIINSIGITNYADSVKGRFTISRDNSKNTLYLQMNSLRAEDTAVYVCNRNFDRIYWGQGTLVTVSS
B2: Farletuzumab (antibody, INN chains, looked up, V domains shown)
VH: EVQLVESGGGVVQPGRSLRLSCSASGFTFSGYGLSWVRQAPGKGLEWVAMISSGGSYTYYADSVKGRFAISRDNAKNTLFLQMDSLRPEDTGVYFCARHGDDPAWFAYWGQGTPVTVSS
VL: DIQLTQSPSSLSASVGDRVTITCSVSSSISSNNLHWYQQKPGKAPKPWIYGTSNLASGVPSRFSGSGSGTDYTFTISSLQPEDIATYYCQQWSSYPYMYTFGQGTKVEIKR
B3: Anti-FOLR1x4 GGGGSx3 (monospecific tetravalent VHH-VHH-Fc) (antibody, part only; not given: hinge and wild-type Fc, not shown: a dimerising Fc or GST)
chain, part: QVQLVESGGGLVQPGGSLRLSCAASGFTVSNSVMAWYRQTPGNEREFVAIINSIGITNYADSVKGRFTISRDNSKNTLYLQMNSLRAEDTAVYVCNRNFDRIYWGQGTLVTVSSGGGGSGGGGSGGGGSQVQLVESGGGLVQPGGSLRLSCAASGFTVSNSVMAWYRQTPGNEREFVAIINSIGITNYADSVKGRFTISRDNSKNTLYLQMNSLRAEDTAVYVCNRNFDRIYWGQGTLVTVSS
B4: Anti-FOLR1x4 GGSx3 (monospecific tetravalent VHH-VHH-Fc) (antibody, part only; not given: hinge and wild-type Fc, not shown: a dimerising Fc or GST)
chain, part: QVQLVESGGGLVQPGGSLRLSCAASGFTVSNSVMAWYRQTPGNEREFVAIINSIGITNYADSVKGRFTISRDNSKNTLYLQMNSLRAEDTAVYVCNRNFDRIYWGQGTLVTVSSGGSGGSGGSQVQLVESGGGLVQPGGSLRLSCAASGFTVSNSVMAWYRQTPGNEREFVAIINSIGITNYADSVKGRFTISRDNSKNTLYLQMNSLRAEDTAVYVCNRNFDRIYWGQGTLVTVSS

biological target: human FOLR1 (recombinant antigen) (human) (UniProt P15328); experiment: ELISA on hFOLR1
Sequence (P15328 25-234 limits assumed): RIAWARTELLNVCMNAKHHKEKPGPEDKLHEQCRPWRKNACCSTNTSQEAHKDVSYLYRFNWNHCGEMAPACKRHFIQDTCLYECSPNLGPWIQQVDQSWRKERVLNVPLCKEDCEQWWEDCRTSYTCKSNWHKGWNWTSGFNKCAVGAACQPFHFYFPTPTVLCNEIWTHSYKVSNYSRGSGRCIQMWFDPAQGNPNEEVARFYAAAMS

Binder	EC50 [pM]
B1	140
B2	120
B3	120
B4	110

biological target: human FOLR1 (recombinant antigen) (human) (UniProt P15328); experiment: BLI (Octet), construct captured on AHC biosensor, hFOLR1 as analyte

Binder	Kd [pM]	koff [s⁻¹]	kon [M⁻¹ s⁻¹]
B1	2850	0.000853	299000
B3	2860	0.000953	333000
B4	2520	0.00087	345000

biological target: FOLR1 on OVCAR3 cells (UniProt P15328); experiment: cell binding to FOLR1-positive OVCAR3 cells
Sequence (P15328 25-234): as the sequence (P15328 25-234 limits assumed) above

Binder	EC50 [pM]
B1	810
B2	710
B3	280
B4	490

biological target: FOLR1 on cells (OVCAR3, OV-90) (UniProt P15328); experiment: flow cytometry on FOLR1 expressing OV-90 cells, Geomeans RL1-H against Conc (nM) [top panel]
Sequence (P15328 25-234): as the sequence (P15328 25-234 limits assumed) above

Binder	EC50 (read off the curve) [pM]
B2	2000
